Patent publication US20150368616A1, “METHODS FOR INDUCTION OF CELL FATES FROM PLURIPOTENT CELLS” (THE CLEVELAND CLINIC FOUNDATION, priority 2013, published 2015)

Columns and labels:
Assay type in all cases: cell-based, human
[1] = tested on: forward differentiating hES culture; assay: Two stage protocol: Pan-CM 8 days then second stage medium with MG132, DAPT, forskolin, sodium propionate; transcript analysis; conditions: compared with MG132
Procedure: As a means to optimize the differentiation of insulin producing cells a two stage protocol was used in which pluripotent cultures were incubated in the presence of Pan-CM for 8 days as a means of generating pancreatic precursors cellular population. The medium these cultures were incubated in were subsequently changed to a medium designed to enhance differentiation of a pancreatic precursor towards a beta-cell terminal fate. All second stage experiments were performed in a medium composed of DMEM/F12 containing 12 mM Glucose supplemented with 1% B27, 1% Pyruvate, 1 uM Alk5 Inh II, 500 ng/ml Noggin and 0.5 uM (1,25 OH2)-Vit D3.
Among the compounds assayed for the ability to increase insulin production in a forward differentiating culture was the proteosomal inhibitor MG132 which we used in the previous example to stabilize Ngn3 protein. We also included the gamma secretase inhibitor DAPT, which was shown in the previous example to greatly increase beta-cell formation in the developing embryonic pancreatic explant study. We also included the short fatty acid salt sodium propionate, which acts as an agonist of short-chain fatty acid receptors. We also included the adenylyl cyclase activator forskolin. We also included the nuclear hormone receptor agonist 1,25 (OH)2)-Vit D3, which binds to, and activates the VDR protein. We also used intermediate concentrations of glucose, shown by others to increase formation of insulin producing cells from pluripotent derivatives. These compounds were used individually or in combination (as outlined in FIG. 37 panel A) to increase insulin-producing endocrine cell formation in a short term Pan-CM treated forward differentiating hES culture system.

hES cultures = assay: Individual defined medium components added throughout stages 2 and 3 of a directed differentiation protocol, qRT-PCR and IHC; conditions: for Pdx1 relative transcript level over hES levels / FoxA2 relative transcript level over hES levels: additive throughout stage 2 and stage 3; for Pdx1 relative transcript level over hES levels: control ~2500 fold; for FoxA2 relative transcript level over hES levels: control ~75 fold
Text: To assay the individual protein components within the cell conditioned medium defined by the microarray analysis, the individual components were included throughout stages 2 and 3 of a directed differentiation protocol. […] Panels B-G show immunohistochemical stainings for Pdx1 and Hnf1-beta for the control reaction (panel B, D and F) and the reaction performed with the addition of Hb-EGF (panels C, E and G).
Since we have seen that the Pan-CM induced differentiation of the pluripotent culture results in an increased presence of pancreatic progenitors within forward differentiating cultures we next assayed the individual components of the cell conditioned medium as single additives throughout stage 2 and stage 3 of a directed differentiation protocol. Stage 2 and stage 3 cultures were assayed since these are the stages which normally establish pancreatic endoderm within directed differentiation protocols. An outlined schematic of the components used throughout the directed differentiation is provided in FIG. 45 panel A. Three genes were assayed throughout this series of experiments: the endodermal gene FoxA2, the early pancreatic progenitor gene Pdx1 and the endocrine progenitor gene Nkx6.1. […] The most dramatic effect noted within the genes assayed throughout this series of experiments was observed within the Pdx1 transcript levels obtained within cultures that had either Hb-EGF or FGF10 included throughout stage 2 and stage 3.
While this series of experiments have successfully established a beneficial effect for the inclusion of a FGF ligand within throughout stages 2 and 3 of a directed differentiation protocol, it should be noted many directed differentiation protocols already currently include a either FGF10 or FGF7 within either stage 2, stage 3 or both. […] This effect may have been due to the high concentration of Activin A used within these reactions 100 ng/ml. This high concentration was chosen because it is the typical concentration used in generating endoderm during stage 1 of directed differentiation protocols, however the actual concentration present within the Pan-CM was undetermined and may have been quite lower. […] This implies that the benefit due to their presence within the directed differentiation protocol may only be detectable by assaying other pancreatic markers or assaying the directed differentiation cultures at later stages, or as in them being a supportive component in a multi-factorial additive provision, yet unable to operate to induce pancreatic fates when provided alone.

pluripotent cultures = assay: Stage 4 administration of individual defined components in directed differentiation, RT-qPCR; conditions: component added at stage 4, 4 days
Text: FIG. 46 (A-B)—Stage 4 administration of defined components. Pluripotent cultures were passaged onto matrigel and maintained in the presence of MEF-conditioned medium for three days before being subjected to a directed differentiation protocol. At the end of stage 3 the individual components of the cell conditioned medium were supplemented into the cultures. After 4 days RNA was extracted from the various cultures and subjected to RT-qPCR analysis for key markers.
We next explored if there were any beneficial effects from inclusion of the individual components of the cell conditioned medium in stage 4 cultures. The individual components were assayed in a directed differentiation protocol for their ability to up regulate markers of the pancreatic truck progenitor state. […] It was noted that both Mfap5 and Nbl1 up regulated the expression of HNF6.

Bmp4 = Bmp4 stimulus of pluripotent cells with Nbl1 or Noggin: phospho smad 1/5/8 Western/IHC, ID factor RNA; conditions: for ID2 and ID4, direct gene targets of Bmp4 signaling / Bmp4 induced phosphorylated smad 1/5/8: 24 hours; for ID2 and ID4, direct gene targets of Bmp4 signaling: RNA analysis; for Bmp4 induced phosphorylated smad 1/5/8: Western blot and IHC
Procedure: FIG. 42 (A-C)—Nbl1 inhibits BMPs. Pluripotent cells were incubated in the presence of Bmp4 alone or in combination with Nbl1 or Noggin for 24 hours. The following day cultures were assayed for downstream targets of Bmp4 signaling. […] Note the reduced expression of the phosphorylated smads for both Nbl1 and Noggin. […] In addition the down stream activation of AFP was loss in the cultures treated with Nbl1 and Noggin.
Our initial experiment testing the ability of a Pan-CM informed defined medium ability to replicate the direct induction of pancreatic fates relied on the use of Noggin as a BMP inhibitor. This was due to the fact that Nbl1 was not available at the time so a member of the same family of proteins was used. We obtained the NBL1 protein (Sino Biologicals, cat number 10169-H02H) and determined if Nbl1 operates as a Bmp signaling inhibitor. Pluripotent cultures were subjected to a Bmp4 stimulus in the presence and absence of either Noggin or Nbl1. […] This inhibitory effect was also observed by immunohistochemical analysis of the treated cultures and is shown in FIG. 42 panel B. In addition the direct gene targets of Bmp4 signaling, ID2 and ID4, were assayed and shown to be inhibited in the presence of Noggin or Nbl1 (FIG. 42 panel C) as was the downstream target of Afp (panel B).

Row | Molecule | NKX6.1 expression (pluripotent cultures) | PDX1 expression (pluripotent cultures) | Pdx1 relative transcript level over hES levels (hES cultures) | also measured
1 | CCC(=O)[O-].[Na+] [sodium propionate] |  |  |  | effects on pancreas-specific transcript levels [1]: minor in comparison
2 | Activin A: Activin receptor agonist | positively effected | significantly up-regulated |  | effect of continued incubation on the cultures (hES cultures; 100 ng/ml throughout stage 2 and 3): detrimental effect on the cultures
3 | Cxcl12: CXCR4 agonist, stromal cell derived factor one |  | down-regulated | slight increase | 
4 | Noggin: BMP inhibitor (protein, UniProt Q13253 28-232, looked up) Noggin: QHYLHIRPAPSDNLPLVDLIEHPDPIFDPKEKDLNETLLRSLLGGHYDPGFMATSPPEDRPGGGGGAAGGAEDLAELDQLLRQRPSGAMPSEIKGLEFSEGLAQGKKQRLSKKLRRKLQMWLWSQTFCPVLYAWNDLGSRFWPRYVKVGSCFSKRSCSVPEGMVCKPSKSVHLTVLRWRCQRRGGQRCGWIPIQYPIISECKCSC |  |  |  | ID2 and ID4, direct gene targets of Bmp4 signaling (Bmp4): inhibited; Bmp4 induced phosphorylated smad 1/5/8 (Bmp4): failed to produce this BMP specific phosphorylation event
5 | Nbl1: DAN family protein, NBL1 protein (Sino Biologicals, cat number 10169-H02H) (protein, UniProt P41271 17-181, looked up) Neuroblastoma suppressor of …: AAPPPINKLALFPDKSAWCEAKNITQIVGHSGCEAKSIQNRACLGQCFSYSVPNTFPQSTESLVHCDSCMPAQSMWEIVTLECPGHEEVPRVDKLVEKILHCSCQACGKEPSHEGLSVYVQGEDGPGSQPGTHPHPHPHPHPGGQTPEPEDPPGAPHTEEEGAED | positively effected |  |  | HNF6 expression (pluripotent cultures): up regulated; function on Bmp4 signaling (Bmp4): functions as a Bmp4 inhibitor; ID2 and ID4, direct gene targets of Bmp4 signaling (Bmp4): inhibited; Bmp4 induced phosphorylated smad 1/5/8 (Bmp4): failed to produce this BMP specific phosphorylation event
6 | Hb-EGF: EGFR agonist (protein, UniProt Q99075 63-148, looked up) Heparin-binding EGF-like …: DLQEADLDLLRVTLSSKPQALATPNKEEHGKRKKKGKGLGKKRDPCLRKYKDFCIHGECKYVKELRAPSCICHPGYHGERCHGLSL |  | down-regulated | ~8500 fold | FoxA2 relative transcript level over hES levels (hES cultures): ~125 fold
7 | Il11: IL11R agonist (protein, UniProt P47873 22-199, looked up) Interleukin-11: PGPPAGSPRVSSDPRADLDSAVLLTRSLLADTRQLAAQMRDKFPADGDHSLDSLPTLAMSAGTLGSLQLPGVLTRLRVDLMSYLRHVQWLRRAGGPSLKTLEPELGALQARLERLLRRLQLLMSRLALPQAAPDQPVIPLGPPASAWGSIRAAHAILGGLHLTLDWAVRGLLLLKTRL | positively effected | significantly up-regulated | slight increase | FoxA2 relative transcript level over hES levels (hES cultures): ~160 fold
8 | FGF10: FGF growth factor (protein, UniProt O15520 38-208, looked up) Fibroblast growth factor 10: QALGQDMVSPEATNSSSSSFSSPSSAGRHVRSYNHLQGDVRWRKLFSFTKYFLKIEKNGKVSGTKKENCPYSILEITSVEIGVVAVKAINSNYYLAMNKKGKLYGSKEFNNDCKLKERIEENGYNTYASFNWQHNGRQMYVALNGKGAPRRGQKTRRKNTSAHFLPMVVHS |  |  | ~8500 fold | 
9 | Mfap5: non-canonical notch agonist (protein, UniProt Q9QZJ6 29-164, looked up) Microfibrillar-associated …: QRGDDVPETFTDDPNLVNDPSTDDTALADITPSTDDLAGDKNATAECRDEKFACTRLYSVHRPVRQCVHQSCFTSLRRMYIINNEICSRLVCKEHEAMKDELCRQMAGLPPRRLRRSNYFRLPPCENMNLQRPDGL | positively effected | significantly up-regulated |  | HNF6 expression (pluripotent cultures): up regulated
